Reference: patent US20260184774A1 (GENOME, published 2026)

Legend:
Test in all cases: ELISA, coated CNTN4 domain sample, anti-human IgG Fc-HRP
[1] = biological target: T1, Human CNTN4 domain sample Full (Domain 1 to Domain 10) (human, UniProt Q8IWV2 19-1000, limits assumed)
T1 construct: domain: Domain 1 to Domain 10 (Ig1 to Ig6 and FN1 to FN4)
T1 sequence (looked up): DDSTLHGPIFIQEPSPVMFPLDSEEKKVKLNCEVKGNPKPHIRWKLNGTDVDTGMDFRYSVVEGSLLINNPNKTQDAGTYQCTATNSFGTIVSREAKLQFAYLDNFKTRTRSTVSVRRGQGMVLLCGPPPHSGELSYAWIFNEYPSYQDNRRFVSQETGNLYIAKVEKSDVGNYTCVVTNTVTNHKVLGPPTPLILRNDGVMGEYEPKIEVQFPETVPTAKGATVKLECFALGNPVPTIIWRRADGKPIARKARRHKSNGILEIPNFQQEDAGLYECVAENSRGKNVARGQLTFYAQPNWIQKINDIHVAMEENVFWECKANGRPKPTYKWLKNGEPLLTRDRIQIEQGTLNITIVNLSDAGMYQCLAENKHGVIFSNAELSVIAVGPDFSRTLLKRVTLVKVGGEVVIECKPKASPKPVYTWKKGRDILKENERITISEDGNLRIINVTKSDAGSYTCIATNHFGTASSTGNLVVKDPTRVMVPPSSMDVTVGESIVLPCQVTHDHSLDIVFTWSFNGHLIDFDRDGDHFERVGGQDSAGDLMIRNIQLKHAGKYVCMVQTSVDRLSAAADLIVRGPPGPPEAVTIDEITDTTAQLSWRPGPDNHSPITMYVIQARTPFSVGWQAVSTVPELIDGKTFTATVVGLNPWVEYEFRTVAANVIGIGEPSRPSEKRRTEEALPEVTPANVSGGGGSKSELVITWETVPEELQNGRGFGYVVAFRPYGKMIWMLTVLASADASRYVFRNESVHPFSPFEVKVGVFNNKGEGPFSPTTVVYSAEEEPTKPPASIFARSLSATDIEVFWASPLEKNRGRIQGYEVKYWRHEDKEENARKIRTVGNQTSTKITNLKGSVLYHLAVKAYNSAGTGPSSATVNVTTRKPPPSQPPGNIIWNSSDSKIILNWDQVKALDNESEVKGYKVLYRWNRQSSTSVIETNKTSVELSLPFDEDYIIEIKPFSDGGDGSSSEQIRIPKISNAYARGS
Experimental: (§1) 50 μL of the diluted secondary antibody (Anti-human IgG Fc-HRP) was distributed to each well. The wells were sealed with sealing tape and incubated at 37° C. for 1 hour. The wells were washed tree times after Sealing tape was removed.
(§2) 50 μL of ABTs were distributed in each well. The wells were incubated at room temperature for 30 minutes. The absorbance was detected at 405 nm by using Microplate reader.

[2] = biological target: T2, Human CNTN4 domain sample D1-4 (human, UniProt Q8IWV2 19-400, limits assumed)
T2 construct: domain: Domain 1 to Domain 4
T2 sequence (looked up): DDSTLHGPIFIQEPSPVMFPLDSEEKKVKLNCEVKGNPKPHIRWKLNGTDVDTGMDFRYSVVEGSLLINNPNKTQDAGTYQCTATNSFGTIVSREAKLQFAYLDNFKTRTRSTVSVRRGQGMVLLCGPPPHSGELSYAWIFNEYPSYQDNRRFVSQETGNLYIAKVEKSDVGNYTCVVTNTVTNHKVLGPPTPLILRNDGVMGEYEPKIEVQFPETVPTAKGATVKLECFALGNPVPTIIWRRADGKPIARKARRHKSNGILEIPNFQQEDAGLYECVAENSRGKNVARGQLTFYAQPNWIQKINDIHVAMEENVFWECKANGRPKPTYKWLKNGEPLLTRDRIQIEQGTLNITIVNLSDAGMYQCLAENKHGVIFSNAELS
Experimental: as §1, §2

[3] = biological target: T3, Human CNTN4 domain sample D1-5 (human, UniProt Q8IWV2 19-493, limits assumed)
T3 construct: domain: Domain 1 to Domain 5
T3 sequence (looked up): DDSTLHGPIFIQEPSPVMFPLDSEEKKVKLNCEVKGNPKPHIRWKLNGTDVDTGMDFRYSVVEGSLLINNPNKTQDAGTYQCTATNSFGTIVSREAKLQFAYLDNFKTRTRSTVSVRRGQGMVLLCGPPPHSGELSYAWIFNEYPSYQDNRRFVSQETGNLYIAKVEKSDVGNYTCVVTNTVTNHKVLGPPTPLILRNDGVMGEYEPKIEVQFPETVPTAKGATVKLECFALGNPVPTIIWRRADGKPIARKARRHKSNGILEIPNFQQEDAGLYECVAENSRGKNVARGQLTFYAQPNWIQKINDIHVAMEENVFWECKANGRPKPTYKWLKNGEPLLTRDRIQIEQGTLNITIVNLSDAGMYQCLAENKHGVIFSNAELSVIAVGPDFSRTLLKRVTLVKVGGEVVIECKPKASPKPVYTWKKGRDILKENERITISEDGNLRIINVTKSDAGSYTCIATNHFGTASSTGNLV
Experimental: as §1, §2

[4] = biological target: T4, Human CNTN4 domain sample D1-6 (human, UniProt Q8IWV2 19-586, limits assumed)
T4 construct: domain: Domain 1 to Domain 6
T4 sequence (looked up): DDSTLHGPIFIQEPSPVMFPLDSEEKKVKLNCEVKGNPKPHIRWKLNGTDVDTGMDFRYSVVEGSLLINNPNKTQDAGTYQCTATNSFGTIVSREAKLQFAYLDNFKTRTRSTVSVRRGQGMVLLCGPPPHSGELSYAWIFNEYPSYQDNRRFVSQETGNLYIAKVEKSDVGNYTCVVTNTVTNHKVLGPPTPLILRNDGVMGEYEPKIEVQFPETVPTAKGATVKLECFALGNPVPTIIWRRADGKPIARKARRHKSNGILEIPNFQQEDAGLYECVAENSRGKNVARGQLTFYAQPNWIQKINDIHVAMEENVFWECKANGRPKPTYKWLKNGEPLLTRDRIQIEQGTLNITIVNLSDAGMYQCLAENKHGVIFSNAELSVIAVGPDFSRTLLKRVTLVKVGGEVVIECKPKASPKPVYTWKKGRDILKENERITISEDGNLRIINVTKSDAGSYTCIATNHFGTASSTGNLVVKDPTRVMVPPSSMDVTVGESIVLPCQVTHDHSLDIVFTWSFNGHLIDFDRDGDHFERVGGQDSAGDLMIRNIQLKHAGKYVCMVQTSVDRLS
Experimental: as §1, §2

[5] = biological target: T5, Human CNTN4 domain sample D1-7 (human, UniProt Q8IWV2 19-697, limits assumed)
T5 construct: domain: Domain 1 to Domain 7
T5 sequence (looked up): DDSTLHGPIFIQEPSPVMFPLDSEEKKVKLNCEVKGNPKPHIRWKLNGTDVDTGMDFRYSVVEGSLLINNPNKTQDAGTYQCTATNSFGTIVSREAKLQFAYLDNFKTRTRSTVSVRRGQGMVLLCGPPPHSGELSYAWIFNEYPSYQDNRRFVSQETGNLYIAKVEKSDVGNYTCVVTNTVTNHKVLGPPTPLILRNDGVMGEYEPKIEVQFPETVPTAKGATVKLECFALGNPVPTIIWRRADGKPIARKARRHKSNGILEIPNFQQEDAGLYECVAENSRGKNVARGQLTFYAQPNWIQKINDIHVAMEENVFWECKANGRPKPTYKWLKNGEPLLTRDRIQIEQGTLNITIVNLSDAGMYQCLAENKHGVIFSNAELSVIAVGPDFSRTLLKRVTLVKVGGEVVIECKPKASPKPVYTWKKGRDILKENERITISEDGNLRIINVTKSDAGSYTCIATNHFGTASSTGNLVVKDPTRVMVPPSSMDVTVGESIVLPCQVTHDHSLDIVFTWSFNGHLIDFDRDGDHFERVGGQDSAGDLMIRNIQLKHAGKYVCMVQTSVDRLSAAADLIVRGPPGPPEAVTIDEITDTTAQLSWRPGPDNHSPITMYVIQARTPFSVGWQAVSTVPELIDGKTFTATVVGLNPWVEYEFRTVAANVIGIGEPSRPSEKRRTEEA
Experimental: as §1, §2

[6] = biological target: T6, Human CNTN4 domain sample D1-8 (human, UniProt Q8IWV2 19-799, limits assumed)
T6 construct: domain: Domain 1 to Domain 8
T6 sequence (looked up): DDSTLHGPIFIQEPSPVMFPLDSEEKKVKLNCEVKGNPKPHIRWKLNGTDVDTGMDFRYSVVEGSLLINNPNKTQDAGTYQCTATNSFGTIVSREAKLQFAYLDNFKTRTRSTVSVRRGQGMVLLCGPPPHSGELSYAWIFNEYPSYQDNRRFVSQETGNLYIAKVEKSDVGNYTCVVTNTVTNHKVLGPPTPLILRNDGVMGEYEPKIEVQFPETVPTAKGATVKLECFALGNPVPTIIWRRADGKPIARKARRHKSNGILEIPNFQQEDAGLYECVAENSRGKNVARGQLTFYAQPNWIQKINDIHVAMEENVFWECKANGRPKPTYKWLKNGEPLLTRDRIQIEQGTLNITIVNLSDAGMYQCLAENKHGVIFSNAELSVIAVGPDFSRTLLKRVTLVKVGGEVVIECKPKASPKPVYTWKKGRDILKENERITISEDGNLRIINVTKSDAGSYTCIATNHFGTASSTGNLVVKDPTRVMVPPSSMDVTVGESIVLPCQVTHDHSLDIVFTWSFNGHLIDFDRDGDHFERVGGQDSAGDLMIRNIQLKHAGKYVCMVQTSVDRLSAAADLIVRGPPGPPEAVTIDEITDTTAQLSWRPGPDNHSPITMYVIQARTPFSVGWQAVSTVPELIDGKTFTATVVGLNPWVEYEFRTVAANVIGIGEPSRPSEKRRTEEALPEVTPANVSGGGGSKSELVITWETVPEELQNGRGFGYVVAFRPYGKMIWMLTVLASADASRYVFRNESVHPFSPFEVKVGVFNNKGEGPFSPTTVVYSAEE
Experimental: as §1, §2

[7] = biological target: T7, Human CNTN4 domain sample D1-9 (human, UniProt Q8IWV2 19-899, limits assumed)
T7 construct: domain: Domain 1 to Domain 9
T7 sequence (looked up): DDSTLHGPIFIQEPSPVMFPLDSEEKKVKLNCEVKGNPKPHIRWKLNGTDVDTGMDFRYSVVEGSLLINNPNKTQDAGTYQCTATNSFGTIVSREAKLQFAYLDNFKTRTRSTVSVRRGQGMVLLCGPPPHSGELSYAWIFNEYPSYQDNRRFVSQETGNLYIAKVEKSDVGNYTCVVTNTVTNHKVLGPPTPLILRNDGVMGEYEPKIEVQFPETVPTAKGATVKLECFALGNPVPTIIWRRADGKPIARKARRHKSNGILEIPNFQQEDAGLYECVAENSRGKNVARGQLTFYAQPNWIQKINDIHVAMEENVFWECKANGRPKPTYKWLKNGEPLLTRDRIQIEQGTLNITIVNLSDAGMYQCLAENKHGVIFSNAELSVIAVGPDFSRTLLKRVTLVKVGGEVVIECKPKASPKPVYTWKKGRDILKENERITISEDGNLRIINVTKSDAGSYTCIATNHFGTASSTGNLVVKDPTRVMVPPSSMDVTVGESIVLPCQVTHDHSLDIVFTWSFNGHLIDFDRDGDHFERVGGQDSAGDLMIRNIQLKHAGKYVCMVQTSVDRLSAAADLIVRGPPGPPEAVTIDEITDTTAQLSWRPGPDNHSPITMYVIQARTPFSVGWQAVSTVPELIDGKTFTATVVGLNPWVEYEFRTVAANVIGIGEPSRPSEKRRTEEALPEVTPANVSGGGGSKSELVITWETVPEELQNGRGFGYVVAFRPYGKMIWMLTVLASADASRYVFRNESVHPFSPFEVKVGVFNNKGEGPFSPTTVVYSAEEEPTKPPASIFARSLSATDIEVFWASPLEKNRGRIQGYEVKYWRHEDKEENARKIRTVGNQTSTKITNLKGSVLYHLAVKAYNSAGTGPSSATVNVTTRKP
Experimental: as §1, §2

binding result [1]: binds
binding result [2]: no binding
binding result [3]: no binding
binding result [4]: no binding
binding result [5]: no binding
binding result [6]: binds
binding result [7]: binds
B1: Anti-CNTN4 chicken-human chimeric IgG4 antibody AB1 (antibody, V domains shown)
VH: AVTLDESEGGLQTPGGALSLVCKASGFTFSSFNMFWVRQAPGKGLEYVAEISGGGGSTWYAPAVKGRATISRDNGQSTVRLQLNNLRAEDTGTYYCAKSADTWSYGAATIDAWGHGTEVIVSS
VL: ALTQPSSVSANLGETVKITCSGSSGSYGWYQQKSPGSAPVTLIYDNTNRPSDIPSRFSGSGSGSTGTLTITGVRAEDEAVYYCGGYDGSTDVFGAGTTLTVL
notes: Chicken variable domains of scFv AB1 on human IgG4 constant regions; It was purified on Kappa select resin, so the light chain is kappa; also called anti-CNTN4 antibody AB1; Anti-CNTN4 129 chimeric IgG4 antibody
